Columns and labels:
[1] = system: IL-1β; test: IL-1β levels in media of LPS-supplemented human synovial tissue / cell cultures, sandwich enzyme immunoassay; assay type: cell-based; settings: LPS 3 μg/ml, 50-2000 ng/ml, 48 hours
Procedure: (§1) Specimen Selection and Culture Conditions: Synovial tissues were obtained from patients undergoing total knee or hip replacement for osteoarthritis (OA). Within 2 hours of removal, synovial tissues were cut into small pieces, of a few millimeters in diameter. Synovial fibroblasts were cultured in 2 ml RPMI 1640 supplemented with 2 mM L-glutamine, 100 U/ml penicillin and 100 μg/ml streptomycin sulphate (Biological Industries).
(§2) Inflammatory cells and PBLs derived from joints of rheumatoid arthritic (RA) patients were cultured individually [RPMI-1640 (Sigma, Israel)]. The murine fibroblast line, NIH 3T3, was used as a control. The recombinant galectin-8 peptide (r-galectin-8) was added to the culture medium of the synovial fibroblasts at a concentration of 0.125 μM, 0.25 μM, 0.5 μM and 1 μM) together with lipopolysaccharide (LPS, 3 μg/ml). The recombinant galectin-8 peptide variants (r-galectin-8 variant 1 and r-galectin-8 variant 2) were added to all the culture mediums in the following concentrations: 50 ng/ml, 125 ng/ml, 250 ng/ml, 500 ng/ml, 750 ng/ml, 1 μg/ml and 2 μg/ml together with lipopolysaccharide (LPS, 3 μg/ml). Following 48 hours of incubation (37° C., 5% CO2), the measurement of IL-1β, TNF-α and IL-1ra production was performed in supernatants by quantitative sandwich enzyme immunoassay technique (R&D Systems, Inc., USA). Detection limits were 1 pg/ml to 14 pg/ml. IL-1ra production was tested with and without the addition of lipopolysaccharide (LPS, 3 μg/ml) to the culture media.

[2] = system: TNFα; test: TNFα levels in media of LPS-supplemented human synovial tissue / cell cultures, sandwich enzyme immunoassay; assay type: cell-based; settings: LPS 3 μg/ml, 50-2000 ng/ml, 48 hours
Procedure: as §1, §2

[3] = system: IL-1ra; test: IL-1ra levels in media of LPS-supplemented human synovial tissue / cell cultures, sandwich enzyme immunoassay; assay type: cell-based; settings: LPS 3 μg/ml, 50-2000 ng/ml, 48 hours
Procedure: as §1, §2

[4] = system: IL-1β; test: IL-1β levels in media of NIH 3T3 fibroblasts (negative control cells); assay type: cell-based, murine; settings: LPS 3 μg/ml, 50-2000 ng/ml, 48 hours
Procedure: as §2

[5] = system: TNFα; test: TNFα levels in media of NIH 3T3 fibroblasts (negative control cells); assay type: cell-based, murine; settings: LPS 3 μg/ml, 50-2000 ng/ml, 48 hours
Procedure: as §2

[6] = system: IL-1ra; test: IL-1ra levels in media of NIH 3T3 fibroblasts (negative control cells); assay type: cell-based, murine; settings: LPS 3 μg/ml, 50-2000 ng/ml, 48 hours
Procedure: as §2

[7] = system: human fibroblasts from OA patients; test: Apoptosis induction, annexin V/PI flow cytometry, OA fibroblasts; assay type: cell-based; settings: for total cell population in the apoptotic area: 24 h, no-addition control 39.5%
Procedure: (§3) The assay was performed by Phosphatidyl Serine Detection Kit (IOP-116F FITC-conjugated, IQ Products, The Netherlands) using the manufacturer instructions. Human fibroblast cells from OA patients, synovial fluid cells and PBLs from RA and other arthritic patients were incubated with increasing concentrations of galectin-8 variants 1 and 2 (50-2000 ng/ml). Specific binding of annexin V was performed by the incubation of cells for 20 minutes on ice in a binding calcium buffer containing a saturating concentration of annexin V-fluorescein isothiocyanate (FITC) and propdium iodide (PI). After incubation, the cells were pelleted, and analyzed in FACS analyzer (Beckton Dickinson, San Jose, Calif.). Annexin V^+/PI^+ cells were defined as necrotic, while annexin V^+/PI^− cells were defined as apoptotic. The percent of the apoptotic cells of the total cells was determined.

[8] = system: PBLs of arthritic patients; test: Apoptosis induction, annexin V/PI flow cytometry, PBLs; assay type: cell-based, human; settings: lowest concentration 50 ng/ml
Procedure: as §3

[9] = system: collagen induced arthritis (CIA); test: Collagen-induced arthritis (CIA) in DBA/1 mice, footpad thickness; assay type: in vivo; settings: 100 μg per injection
Source text: Animal treatment: 44 DBA/1 mice were induced with a joint inflammatory disease by two subcutaneous (s.c.) injections into the base of the tail of type II collagen three weeks apart. Joint inflammation, which appears several days after the last collagen injection, causes enhanced marked foot pad swelling, as well as swelling of other joints. The diameter of nonarthritic footpads is 1.5 to 1.7 mm. A footpad diameter of 1.9 to 2.0 mm was arbitrarily set as disease onset. […] Human galectin-8 protein and variants (100 μg per injection) as well as control injections were injected IP at disease onset and then every day for 11 days. The 44 mice were divided into 5 experimental groups as follows: Group 1 (negative control): systemic injection (starting at CIA onset) of PBS or PBS+30% glycerol (storing dilution solution of galectin proteins) (10 mice). Group 2 (positive control): systemic injection (starting at CIA onset) of anti-mouse TNFα mAb (cat. no. AMC-3012, Biosource Int. Inc. USA) adhering to the standard protocol (i.e., 100 μg antibody/mouse every day for 11 days) (6 mice). Group 3 (positive control): systemic injection of human galectin-8 protein according to the standard protocol (10 mice). Group 4: systemic injection of 100 μg per dose of human galectin-8 variant 1 according to the standard protocol (10 mice). Group 5: systemic injection of 100 μg per dose of human galectin-8 variant 2 (8 mice). The effect on footpad thickness was determined in a “blind” fashion, recording the electronic microcaliper measurements of the thickness of the joints, by picking the animals at random and recording their ears' signs following measurement. The mice were bled prior to disease induction, following disease onset and upon termination of the experiment (approximately day 11). The sera were stored and later analyzed for the presence of rheumatoid factor (RF) and cytokines. The mice were killed upon termination of the experiment and the joints removed from some of the animals for histopathological examination.

[10] = PBLs from RA patients, listed as galectin-8 var. 1
[11] = human fibroblasts from OA patients
[12] = human fibroblasts from OA patients, listed as galectin-8 var. 1
[13] = synovial fluid cells (SFCs), listed as galectin-8 var. 1

B1: galectin-8 variant 1: recombinant galectin-8 variant 1 polypeptide, SEQ ID NO: 6, isoform found in synovial fluid cells of arthritic patients (protein)
chain: MMLSLNNLQNIIYNPDLQSTQASSLELTEISRENVPKSGTPQLPSNRGGDISKIAPRTVYTKSKEARQSHFDLHENTTYELCVKSLPFAARLNTPMGPGRTVVVKGEVNANAKSFNVDLLAGKSKDIALHLNPRLNIKAFVRNSFLQESWGEEERNITSFPFSPGMYFEMIIYCDVREFKVAVNGVHSLEYKHRFKELSSIDTLEINGDIHLLEVRSW
IL-1β levels in media ([1]; PBLs from RA patients): significantly and dose-dependently inhibited | IL-1β levels in media [1, 10]: decrease | IL-1β levels in media [1, 11]: significantly and dose-dependently inhibited | IL-1β levels in media [1, 12]: decrease | IL-1β levels in media ([1]; synovial fluid cells (SFCs)): significantly and dose-dependently inhibited | IL-1β levels in media [1, 13]: decrease | TNFα levels in media ([2]; PBLs from RA patients): significantly and dose-dependently inhibited | TNFα levels in media [2, 10]: decrease | TNFα levels in media [2, 11]: significantly and dose-dependently inhibited | TNFα levels in media [2, 12]: decrease | TNFα levels in media ([2]; synovial fluid cells (SFCs)): significantly and dose-dependently inhibited | TNFα levels in media [2, 13]: decrease | IL-1ra levels in media ([3]; PBLs of RA patients): significantly and dose-dependently increased | IL-1ra levels in media ([3]; PBLs of RA patients, listed as galectin-8 var. 1): decrease | IL-1ra levels in media [3, 11]: significantly and dose-dependently increased | IL-1ra levels in media [3, 12]: decrease | IL-1ra levels in media ([3]; synovial fluid cells (SFCs)): significantly and dose-dependently increased | IL-1ra levels in media [3, 13]: decrease | IL-1β levels in media [4]: No effect | IL-1β levels in media ([4]; listed as galectin-8 var. 1): remain unaffected | TNFα levels in media [5]: No effect | TNFα levels in media ([5]; listed as galectin-8 var. 1): remain unaffected | IL-1ra levels in media [6]: No effect | IL-1ra levels in media ([6]; listed as galectin-8 var. 1): remain unaffected | total cell population in the apoptotic area ([7]; 50 ng/ml): 32.5% | total cell population in the apoptotic area ([7]; 125 ng/ml): 47.5% | total cell population in the apoptotic area ([7]; 250 ng/ml): 48.4% | total cell population in the apoptotic area ([7]; 500 ng/ml): 55.5% | total cell population in the apoptotic area ([7]; 750 ng/ml): 58.5% | total cell population in the apoptotic area ([7]; 1000 ng/ml): 77% | total cell population in the apoptotic area ([7]; 2000 ng/ml): 77% | percentage of apoptotic cells ([7]; increasing concentrations (50-2000 ng/ml)): gradually increased | maximal apoptotic effect [8]: approximately 100% | CIA manifestations (footpad swelling) ([9]; IP / systemic, from disease onset every day for 11 days): substantially reduced | alleviating the swelling in the footpad, compared with positive controls ([9]; every day for 11 days): at least as effective as anti-TNFα mAb and the human galectin-8 recombinant peptide

From patent US8076087B2, “Galectin sequences and compositions and methods utilizing same for treating or diagnosing arthritis and other chronic inflammatory diseases” (Medical Research Fund of Tel Aviv Souraskv Medical Center, priority 2002, dated 2011)
